For 13 molecules, EC50 results are on record in patent publication US20250382355A1 (Merck Sharp & Dohme, published 2025).

What is called EC50 is the concentration needed to bring the measured effect to its halfway point. A high value points to a less potent agent.

The labels stand for the following.
B1: 8E9 VHH-Fc (Fc fusion)
chain: QVQLVESGGGLVEAGGSLRLSCVASGSSSSINAMGWYRQAPGKQRELVASISHDGETKYANSVKGRFTISRGNAKNTIYLQMNSLKPEDTAVYYCVGDVAWVVVAGEYDYWGQGTQVTVSS
B2: 5G11 VHH-Fc (Fc fusion)
chain: QVQLVESGGGLVQAGGSLRLSCAASGRTFSIYAVGWFRQAPGKERDFVAGITWSGGTTYYSDSVKGRFTISRDNAKNTVYLQMNNLKPEDTAIYYCAVDTYSMTLSARSYDYWGQGTQVTVSS
B3: 15H7 VHH-Fc (Fc fusion)
chain: QVQLVESGGRLVQAGGSLRLSCAAPGRTFRNLTLGWFRQAPGKEREFVASTSWPDDEMTYYTDSVKGRFTISRDNAKNTVYLQMNSLKPEDTAVYYCAAASWSGRSTLSYDYDYWGQGTQVTVST
B4: 11F8 VHH-Fc (Fc fusion)
chain: QVQLVESGGGLVQAGGSLRLSCAASGRTVGYYAVGWFRQAPGKERDFVAAISWSGRNTNYADSVTGRFTIFRDNAKNTVDLQMNSLKPEDTAVYYCAADYWNYGSGSEVPNNYDTWGQGTQVTVSS
B5: 7A9 VHH-Fc (Fc fusion)
chain: QVQLVESGGGLVQAGGSLRLSCSASGGTASRSAMGWFRQAPGKEREFVAGISRRNSGSTYVADSYEDSVKGRFTISRDNAKNTIYLQMNSLKPEDTAVYYCAAEPTLGWYVPRRSVEYEYWGQGTQVTVSS
B6: 10B8 VHH-Fc (Fc fusion)
chain: QVQLVESGGGLVQPGGSLRLSCAASGITLDYYAIAWFRQAPGKEREGVSCFCSSDGDIRYADSVKGRFTISRDNAKNTVYLQMNSLKPEDTAVYYCATERVYSSTWFFHRYSELDFGSWGRGTQVTVSS
B7: 13C8 VHH-Fc (Fc fusion)
chain: QVQLVESGGGLVQAGGSLRLSCAASGRTVNKYMTGWFRQTPGKEREFVASIDWSSTTTHYANSVKGRFTISRDKVKNTVYLQMNGLKPEDTAVYYCAAHQDSSYGYTILPIDYDSWGQGTQVTVSS
B8: 19E10 VHH-Fc (Fc fusion)
chain: QVQLVESGGGLVQPGGSLRLSCVASGSTISINSMGWYRQAPGKAREMVATITNDGPIKYADPVKGRFTISRDNPKNTVYLQMNSLKPEDTAVYYCVADRAYWLAGEWEYWGQGTQVTVSS
B9: 5D7 VHH-Fc (Fc fusion)
chain: QVQLVESGGGLVQAGGSLRLSCAASGRTGSRYIMGWFRQAPGKEREFVAAINWRGDSTYYADSVKGRFTIARDNAKNTAYLQMNSLKPEDTAVYYCVADRGESYYYTRSTEYTYWGQGTQVTVSS
B10: 5A6 VHH-Fc (Fc fusion)
chain: QVQLVESGGGLAQAGGSLRLSCATSGLTFSMSAMGWFRQAPGNEREFVGVINWNGGSSRYADSVRGRFTISRDNAKNTVYLQMNSLKPEDTGVYYCAADALNIGTGEVNPRLYDYWGQGTQVMVSS
B11: 15H1 VHH-Fc (Fc fusion)
chain: QVQLVESGGGLAQAGGSLRLSCASSGLIFSGSAMGWFRQAPGKEREFVGVISWNGRTTYADSVKGRFTISRDDAVNMVWLQMNNLKPEDTAVYYCAADHLNYGSGDVNPRTYDYWGQGTQVTVSS
B12: 9B2 VHH-Fc (Fc fusion)
chain: QVQLVESGGGLVQPGGSLRLSCAASGFTLDNYAIGWFRQAPGKEREGVSCISSSDGDTQYADSVKGRFTISRDNAKNTVYLQMNSLKPEDTAVYYCAVEKVYARSWFFHLCSELDFGSWGQGTQVTVSS
B13: 1A11 VHH-Fc (Fc fusion)
chain: QVQLVESGGGLVQAGGSLRLSCEVSGSIYSINSMGWYRQAPGKQRELVAGIVSDGRINYADSVKGRFTISRAKNTVYLQMNSLKPEDTAVYYCAADRAFVYAGDYDYLGQGTQVTVSS

This assay addresses SARS-CoV prefusion-stabilized spike protein (SARS-CoV-PreS) (SARS-CoV, UniProt P59594 14-1190). Kind of assay: ELISA. On the technique in general: ELISA stands for enzyme-linked immunosorbent assay.
The molecule B1 showed an EC50 of 0.08 nM. This counts as picomolar.
The same measure for B2: 0.18 nM.
The same measure for B3: 0.08 nM.
Molecule B4 had a concentration for a half-maximal effect (EC50) of 0.18 nM. This EC50 lies about 2.2-fold higher than the previous one.
B5 came in with an EC50 of 0.06 nM.
Regarding B6, the concentration giving a half-maximal response (EC50) worked out at 0.13 nM.
Under B7 stands 0.1 nM; under B8, 0.03 nM.
As for B9, the response was half-maximal at 0.04 nM (EC50).
In the case of B10, the EC50 turned out to be 0.09 nM.
In turn, B11 showed a concentration giving a half-maximal response (EC50) of 0.06 nM.
With B12, a half-maximal response (EC50) required 0.12 nM.
Molecule B13 had an EC50 of 0.05 nM.
